Abundance fitness data for 38 variants are collected here from the Human Domainome abundance scans (Beltran et al. 2025).

B1: POU domain, class 2, transcription factor 2, residues 200 to 269; numbered along this chain, P09086 (parent)
chain: LEELEQFARTFKQRRIKLGFTQGDVGLAMGKLYGNDFSQTTISRFEALNLSFKNMCKLKPLLEKWLNDAE

± gives the uncertainty stated by the source.

The variants in this data set derive from B1. In words: abundance fitness (aPCA) (normalised: wild type 0, dead -1); higher = more abundant; growth selection in yeast, the domain comes from the species named. As to conditions: Homo sapiens.
For LEELEQFARTFKQRRIKLGFTQGDVGLAMGKLYGNDFSQTTISRFEALNPSFKNMCKLKPLLEKWLNDAE [L50P], the abundance fitness is -0.674 ± 0.066.

For the variant LEELEQFARTFKQRRIKLGFTQGDVGLAMGKLYGNDFSQTTISRFEALNESFKNMCKLKPLLEKWLNDAE [L50E], the abundance fitness turned out to be 0.008 ± 0.074.

LEELEQFARTFKQRRIKLGFTQGDVGLAMGKLYGNDFSQTTISRFEALNKSFKNMCKLKPLLEKWLNDAE [L50K]: the abundance fitness is -0.658 ± 0.073.

As to LEELEQFARTFKQRRIKLGFTQGDVGLAMGKLYGNDFSQTTISRFEALNTSFKNMCKLKPLLEKWLNDAE [L50T], the abundance fitness is -0.054 ± 0.052.

With LEELEQFARTFKQRRIKLGFTQGDVGLAMGKLYGNDFSQTTISRFEALNHSFKNMCKLKPLLEKWLNDAE [L50H], the abundance fitness is -0.089 ± 0.056.

On to LEELEQFARTFKQRRIKLGFTQGDVGLAMGKLYGNDFSQTTISRFEALNNSFKNMCKLKPLLEKWLNDAE [L50N], for which the abundance fitness is -0.53 ± 0.1.

As for LEELEQFARTFKQRRIKLGFTQGDVGLAMGKLYGNDFSQTTISRFEALNMSFKNMCKLKPLLEKWLNDAE [L50M], the abundance fitness was -0.049 ± 0.057.

Take LEELEQFARTFKQRRIKLGFTQGDVGLAMGKLYGNDFSQTTISRFEALNASFKNMCKLKPLLEKWLNDAE [L50A]: the abundance fitness was -0.103 ± 0.033.

In the case of LEELEQFARTFKQRRIKLGFTQGDVGLAMGKLYGNDFSQTTISRFEALNFSFKNMCKLKPLLEKWLNDAE [L50F], the abundance fitness is -0.064 ± 0.065.

As for LEELEQFARTFKQRRIKLGFTQGDVGLAMGKLYGNDFSQTTISRFEALNGSFKNMCKLKPLLEKWLNDAE [L50G], the abundance fitness is -0.116 ± 0.028.

With LEELEQFARTFKQRRIKLGFTQGDVGLAMGKLYGNDFSQTTISRFEALNISFKNMCKLKPLLEKWLNDAE [L50I], the abundance fitness was -0.039 ± 0.05.

On to LEELEQFARTFKQRRIKLGFTQGDVGLAMGKLYGNDFSQTTISRFEALNYSFKNMCKLKPLLEKWLNDAE [L50Y], for which the abundance fitness was -0.174 ± 0.066.

LEELEQFARTFKQRRIKLGFTQGDVGLAMGKLYGNDFSQTTISRFEALNVSFKNMCKLKPLLEKWLNDAE [L50V]: the abundance fitness was -0.036 ± 0.045.

Regarding LEELEQFARTFKQRRIKLGFTQGDVGLAMGKLYGNDFSQTTISRFEALNCSFKNMCKLKPLLEKWLNDAE [L50C], the abundance fitness is -0.078 ± 0.026.

With LEELEQFARTFKQRRIKLGFTQGDVGLAMGKLYGNDFSQTTISRFEALNRSFKNMCKLKPLLEKWLNDAE [L50R], the abundance fitness is -0.625 ± 0.044.

In the case of LEELEQFARTFKQRRIKLGFTQGDVGLAMGKLYGNDFSQTTISRFEALNDSFKNMCKLKPLLEKWLNDAE [L50D], the abundance fitness was -0.089 ± 0.06.

For the variant LEELEQFARTFKQRRIKLGFTQGDVGLAMGKLYGNDFSQTTISRFEALNWSFKNMCKLKPLLEKWLNDAE [L50W], the abundance fitness was -0.183 ± 0.043.

Consider LEELEQFARTFKQRRIKLGFTQGDVGLAMGKLYGNDFSQTTISRFEALNSSFKNMCKLKPLLEKWLNDAE [L50S], for which the abundance fitness is -0.155 ± 0.036.

For LEELEQFARTFKQRRIKLGFTQGDVGLAMGKLYGNDFSQTTISRFEALNLDFKNMCKLKPLLEKWLNDAE [S51D], the abundance fitness was found to be 0.06 ± 0.072.

Take LEELEQFARTFKQRRIKLGFTQGDVGLAMGKLYGNDFSQTTISRFEALNLEFKNMCKLKPLLEKWLNDAE [S51E]: the abundance fitness was 0.025 ± 0.05.

In the case of LEELEQFARTFKQRRIKLGFTQGDVGLAMGKLYGNDFSQTTISRFEALNLFFKNMCKLKPLLEKWLNDAE [S51F], the abundance fitness was -0.832 ± 0.1.

On to LEELEQFARTFKQRRIKLGFTQGDVGLAMGKLYGNDFSQTTISRFEALNLCFKNMCKLKPLLEKWLNDAE [S51C], for which the abundance fitness is -0.172 ± 0.072.

With LEELEQFARTFKQRRIKLGFTQGDVGLAMGKLYGNDFSQTTISRFEALNLKFKNMCKLKPLLEKWLNDAE [S51K], the abundance fitness was -0.019 ± 0.052.

Regarding LEELEQFARTFKQRRIKLGFTQGDVGLAMGKLYGNDFSQTTISRFEALNLIFKNMCKLKPLLEKWLNDAE [S51I], the abundance fitness is -0.684 ± 0.42.

With LEELEQFARTFKQRRIKLGFTQGDVGLAMGKLYGNDFSQTTISRFEALNLRFKNMCKLKPLLEKWLNDAE [S51R], the abundance fitness was -0.102 ± 0.035.

Consider LEELEQFARTFKQRRIKLGFTQGDVGLAMGKLYGNDFSQTTISRFEALNLLFKNMCKLKPLLEKWLNDAE [S51L], for which the abundance fitness was -0.785 ± 0.053.

As for LEELEQFARTFKQRRIKLGFTQGDVGLAMGKLYGNDFSQTTISRFEALNLPFKNMCKLKPLLEKWLNDAE [S51P], the abundance fitness was 0.006 ± 0.034.

Take LEELEQFARTFKQRRIKLGFTQGDVGLAMGKLYGNDFSQTTISRFEALNLHFKNMCKLKPLLEKWLNDAE [S51H]: the abundance fitness is -0.049 ± 0.075.

With LEELEQFARTFKQRRIKLGFTQGDVGLAMGKLYGNDFSQTTISRFEALNLTFKNMCKLKPLLEKWLNDAE [S51T], the abundance fitness was 0.007 ± 0.04.

With LEELEQFARTFKQRRIKLGFTQGDVGLAMGKLYGNDFSQTTISRFEALNLNFKNMCKLKPLLEKWLNDAE [S51N], the abundance fitness is -0.037 ± 0.19.

For the variant LEELEQFARTFKQRRIKLGFTQGDVGLAMGKLYGNDFSQTTISRFEALNLAFKNMCKLKPLLEKWLNDAE [S51A], the abundance fitness is -0.117 ± 0.035.

Turning to LEELEQFARTFKQRRIKLGFTQGDVGLAMGKLYGNDFSQTTISRFEALNLVFKNMCKLKPLLEKWLNDAE [S51V], the abundance fitness was -0.507 ± 0.043.

Regarding LEELEQFARTFKQRRIKLGFTQGDVGLAMGKLYGNDFSQTTISRFEALNLWFKNMCKLKPLLEKWLNDAE [S51W], the abundance fitness was -0.907 ± 0.091.

LEELEQFARTFKQRRIKLGFTQGDVGLAMGKLYGNDFSQTTISRFEALNLYFKNMCKLKPLLEKWLNDAE [S51Y]: the abundance fitness is -0.461 ± 0.082.

For LEELEQFARTFKQRRIKLGFTQGDVGLAMGKLYGNDFSQTTISRFEALNLMFKNMCKLKPLLEKWLNDAE [S51M], the abundance fitness is -0.317 ± 0.053.

In the case of LEELEQFARTFKQRRIKLGFTQGDVGLAMGKLYGNDFSQTTISRFEALNLGFKNMCKLKPLLEKWLNDAE [S51G], the abundance fitness was -0.05 ± 0.034.

Regarding LEELEQFARTFKQRRIKLGFTQGDVGLAMGKLYGNDFSQTTISRFEALNLSQKNMCKLKPLLEKWLNDAE [F52Q], the abundance fitness is -0.087 ± 0.084.

Take LEELEQFARTFKQRRIKLGFTQGDVGLAMGKLYGNDFSQTTISRFEALNLSGKNMCKLKPLLEKWLNDAE [F52G]: the abundance fitness is -0.053 ± 0.039.
